Data from the Human Domainome abundance scans (Beltran et al. 2025).
± gives the uncertainty stated by the source.

B1: FERM and PDZ domain-containing protein 4, residues 75 to 154; numbered along this chain, Q14CM0 (parent)
chain: APRKVEMRRDPVLGFGFVAGSEKPVVVRSVTPGGPSEGKLIPGDQIVMINDEPVSAAPRERVIDLVRSCKESILLTVIQP

Variants of: B1
Assay: abundance fitness (aPCA) (normalised: wild type 0, dead -1); higher = more abundant; growth selection in yeast, the domain comes from the species named
Conditions: Homo sapiens

Abundance fitness of substitutions, site by site:
P80: H -0.165 ± 0.066, Q 0 ± 0.05, S -0.066 ± 0.028, C -0.157 ± 0.11, T -0.066 ± 0.033, I -0.413 ± 0.11, L -0.387 ± 0.042, K -0.138 ± 0.054, F -0.387 ± 0.13, G -0.074 ± 0.036, V -0.23 ± 0.039, A -0.086 ± 0.033, W -0.403 ± 0.064, D -0.28 ± 0.11, M -0.181 ± 0.048, R -0.146 ± 0.04, Y -0.356 ± 0.07, N -0.058 ± 0.085, E -0.164 ± 0.053
S72: N -0.028 ± 0.028, R -0.019 ± 0.021, W -0.234 ± 0.029, M -0.11 ± 0.028, Q -0.004 ± 0.027, T -0.011 ± 0.026, I -0.177 ± 0.029, Y -0.129 ± 0.029, D -0.014 ± 0.029, H -0.015 ± 0.029, P -0.284 ± 0.028, V -0.104 ± 0.023, F -0.167 ± 0.028, K 0.009 ± 0.027
Q79: E -0.017 ± 0.024, N -0.045 ± 0.033, I -0.425 ± 0.039, V -0.236 ± 0.021, S 0.022 ± 0.022, D -0.002 ± 0.028, A 0.035 ± 0.022, G 0.03 ± 0.019, C 0.012 ± 0.028, R 0.074 ± 0.018, W -0.233 ± 0.023, T 0.028 ± 0.024, H -0.027 ± 0.032, Y -0.09 ± 0.033, K -0.029 ± 0.027, L -0.165 ± 0.022, F -0.262 ± 0.034, P -0.019 ± 0.03
I73: L -0.023 ± 0.029, R -0.669 ± 0.036, V -0.025 ± 0.027, T -0.202 ± 0.038, C -0.045 ± 0.039, W -0.954 ± 0.057, P -0.57 ± 0.061, H -0.793 ± 0.17, N -0.369 ± 0.052, E -0.463 ± 0.037, F -0.242 ± 0.057, S -0.462 ± 0.037, G -0.565 ± 0.032, Y -0.755 ± 0.092
I78: N -0.049 ± 0.033, H -0.015 ± 0.036, W -0.063 ± 0.022, R 0.005 ± 0.019, A 0.028 ± 0.021, P -0.569 ± 0.032, G -0.079 ± 0.019, Q 0.025 ± 0.024, M 0.022 ± 0.025, T 0.037 ± 0.024, K 0.036 ± 0.027, S 0.01 ± 0.022, C -0.029 ± 0.027, L -0.024 ± 0.02, Y -0.053 ± 0.033, E 0.044 ± 0.023, F -0.042 ± 0.031
V77: A -0.259 ± 0.023, L -0.105 ± 0.021, W -0.981 ± 0.041, T -0.231 ± 0.028, H -0.681 ± 0.056, D -0.658 ± 0.044, S -0.655 ± 0.03, R -0.728 ± 0.025, Y -0.815 ± 0.078, C -0.07 ± 0.029, G -0.653 ± 0.023, M -0.475 ± 0.031, K -0.523 ± 0.033, I -0.098 ± 0.032
T76: Q -0.095 ± 0.039, S -0.047 ± 0.032, D -0.073 ± 0.055, W -0.18 ± 0.033, L -0.163 ± 0.034, A -0.132 ± 0.033, H -0.05 ± 0.062, I -0.156 ± 0.052, M -0.154 ± 0.04, P -0.639 ± 0.081, N 0.002 ± 0.074, Y -0.005 ± 0.059, C -0.088 ± 0.047, V -0.133 ± 0.031, E -0.025 ± 0.04, R -0.058 ± 0.029, K -0.036 ± 0.04
L74: I 0.145 ± 0.096, S 0.024 ± 0.038, T -0.014 ± 0.043, R 0.037 ± 0.031, Q 0.03 ± 0.045, M 0.011 ± 0.043, E 0.005 ± 0.034, A -0.006 ± 0.032, Y 0.131 ± 0.092, G 0.009 ± 0.026, F 0.016 ± 0.062, V 0.012 ± 0.031, K 0.026 ± 0.049, W -0.024 ± 0.037, N -0.035 ± 0.079, H 0.005 ± 0.13, P -0.366 ± 0.068, D 0.012 ± 0.05, C 0.038 ± 0.05
L75: E -0.514 ± 0.054, D -0.343 ± 0.062, H -0.553 ± 0.2, N -0.773 ± 0.19, Q -0.542 ± 0.096, A -0.332 ± 0.04, R -0.631 ± 0.045, T -0.404 ± 0.063, Y -0.749 ± 0.13, P -0.185 ± 0.075, V -0.097 ± 0.032, I -0.118 ± 0.066, C -0.257 ± 0.052, M -0.022 ± 0.041, W -0.629 ± 0.048, S -0.558 ± 0.051, K -0.387 ± 0.07, F -0.101 ± 0.047
